Reference: the RNAGym collection of RNA variant scans (doi:10.1021/acssynbio.7b00057)

B1: Pistol ribozyme (parent)
chain: GGGUCGUUGUUCCAUAAUCGCGUGGAUAUGGCACGCAAGUUUCUACCGGGCACCGUAAAUGUCCGACUGGAGCCGUUCGGGCGGCUAUAAACAGACCUCAGGCCCGAAGCGUGGCGGCACCUGCCGCCGGUGGUAAAAAAGAUCGGAAGAGCACACGUCU

Variants of: B1
Experiment: aptazyme ON/OFF ratio, guanine; higher = stronger switching; co-transcriptional cleavage with and without guanine

Variant | aptazyme ON/OFF ratio
GGGUCGGCAGUGAAUAAUCGCGUGGAUAUGGCACGCAAGUUUCUACCGGGCACCGUAAAUGUCCGACUGGAGCCGUUCGGGCGGCUAUAAACAGACCUCAGGCCCGAAGCGUGGCGGCACCUGCCGCCGGUGGUAAAAAAGAUCGGAAGAGCACACGUCU [U7G U8C G9A U10G C12G C13A] | 1.12
GGGUCGGCAGUGGAUAAUCGCGUGGAUAUGGCACGCAAGUUUCUACCGGGCACCGUAAAUGUCCGACUGGAGCCGUUCGGGCGGCUAUAAACAGACCUCAGGCCCGAAGCGUGGCGGCACCUGCCGCCGGUGGUAAAAAAGAUCGGAAGAGCACACGUCU [U7G U8C G9A U10G C12G C13G] | 1.05
GGGUCGGCAGACAAUAAUCGCGUGGAUAUGGCACGCAAGUUUCUACCGGGCACCGUAAAUGUCCGACUGGAGCCGUUCGGGCGGCUAUAAACAGACCUCAGGCCCGAAGCGUGGCGGCACCUGCCGCCGGUGGUAAAAAAGAUCGGAAGAGCACACGUCU [U7G U8C G9A U10G U11A C13A] | 1.05
GGGUCGGCAGACUAUAAUCGCGUGGAUAUGGCACGCAAGUUUCUACCGGGCACCGUAAAUGUCCGACUGGAGCCGUUCGGGCGGCUAUAAACAGACCUCAGGCCCGAAGCGUGGCGGCACCUGCCGCCGGUGGUAAAAAAGAUCGGAAGAGCACACGUCU [U7G U8C G9A U10G U11A C13U] | 1.05
GGGUCGGCAGACGAUAAUCGCGUGGAUAUGGCACGCAAGUUUCUACCGGGCACCGUAAAUGUCCGACUGGAGCCGUUCGGGCGGCUAUAAACAGACCUCAGGCCCGAAGCGUGGCGGCACCUGCCGCCGGUGGUAAAAAAGAUCGGAAGAGCACACGUCU [U7G U8C G9A U10G U11A C13G] | 1.04
GGGUCGGCAGCCCAUAAUCGCGUGGAUAUGGCACGCAAGUUUCUACCGGGCACCGUAAAUGUCCGACUGGAGCCGUUCGGGCGGCUAUAAACAGACCUCAGGCCCGAAGCGUGGCGGCACCUGCCGCCGGUGGUAAAAAAGAUCGGAAGAGCACACGUCU [U7G U8C G9A U10G U11C] | 1.04
GGGUCGGCAGACCAUAAUCGCGUGGAUAUGGCACGCAAGUUUCUACCGGGCACCGUAAAUGUCCGACUGGAGCCGUUCGGGCGGCUAUAAACAGACCUCAGGCCCGAAGCGUGGCGGCACCUGCCGCCGGUGGUAAAAAAGAUCGGAAGAGCACACGUCU [U7G U8C G9A U10G U11A] | 1.07
GGGUCGGCAGCACAUAAUCGCGUGGAUAUGGCACGCAAGUUUCUACCGGGCACCGUAAAUGUCCGACUGGAGCCGUUCGGGCGGCUAUAAACAGACCUCAGGCCCGAAGCGUGGCGGCACCUGCCGCCGGUGGUAAAAAAGAUCGGAAGAGCACACGUCU [U7G U8C G9A U10G U11C C12A] | 1.3
GGGUCGGCAGCGCAUAAUCGCGUGGAUAUGGCACGCAAGUUUCUACCGGGCACCGUAAAUGUCCGACUGGAGCCGUUCGGGCGGCUAUAAACAGACCUCAGGCCCGAAGCGUGGCGGCACCUGCCGCCGGUGGUAAAAAAGAUCGGAAGAGCACACGUCU [U7G U8C G9A U10G U11C C12G] | 1.2
GGGUCGGCAGAAAAUAAUCGCGUGGAUAUGGCACGCAAGUUUCUACCGGGCACCGUAAAUGUCCGACUGGAGCCGUUCGGGCGGCUAUAAACAGACCUCAGGCCCGAAGCGUGGCGGCACCUGCCGCCGGUGGUAAAAAAGAUCGGAAGAGCACACGUCU [U7G U8C G9A U10G U11A C12A C13A] | 1.04
GGGUCGGCAGAAGAUAAUCGCGUGGAUAUGGCACGCAAGUUUCUACCGGGCACCGUAAAUGUCCGACUGGAGCCGUUCGGGCGGCUAUAAACAGACCUCAGGCCCGAAGCGUGGCGGCACCUGCCGCCGGUGGUAAAAAAGAUCGGAAGAGCACACGUCU [U7G U8C G9A U10G U11A C12A C13G] | 1.09
GGGUCGGCAGAAUAUAAUCGCGUGGAUAUGGCACGCAAGUUUCUACCGGGCACCGUAAAUGUCCGACUGGAGCCGUUCGGGCGGCUAUAAACAGACCUCAGGCCCGAAGCGUGGCGGCACCUGCCGCCGGUGGUAAAAAAGAUCGGAAGAGCACACGUCU [U7G U8C G9A U10G U11A C12A C13U] | 1.11
GGGUCGGCAGAGUAUAAUCGCGUGGAUAUGGCACGCAAGUUUCUACCGGGCACCGUAAAUGUCCGACUGGAGCCGUUCGGGCGGCUAUAAACAGACCUCAGGCCCGAAGCGUGGCGGCACCUGCCGCCGGUGGUAAAAAAGAUCGGAAGAGCACACGUCU [U7G U8C G9A U10G U11A C12G C13U] | 1.12
GGGUCGGCAGAGAAUAAUCGCGUGGAUAUGGCACGCAAGUUUCUACCGGGCACCGUAAAUGUCCGACUGGAGCCGUUCGGGCGGCUAUAAACAGACCUCAGGCCCGAAGCGUGGCGGCACCUGCCGCCGGUGGUAAAAAAGAUCGGAAGAGCACACGUCU [U7G U8C G9A U10G U11A C12G C13A] | 1.09
GGGUCGGCAGAGGAUAAUCGCGUGGAUAUGGCACGCAAGUUUCUACCGGGCACCGUAAAUGUCCGACUGGAGCCGUUCGGGCGGCUAUAAACAGACCUCAGGCCCGAAGCGUGGCGGCACCUGCCGCCGGUGGUAAAAAAGAUCGGAAGAGCACACGUCU [U7G U8C G9A U10G U11A C12G C13G] | 1.24
GGGUCGGCAGCGUAUAAUCGCGUGGAUAUGGCACGCAAGUUUCUACCGGGCACCGUAAAUGUCCGACUGGAGCCGUUCGGGCGGCUAUAAACAGACCUCAGGCCCGAAGCGUGGCGGCACCUGCCGCCGGUGGUAAAAAAGAUCGGAAGAGCACACGUCU [U7G U8C G9A U10G U11C C12G C13U] | 1.18
GGGUCGGCAGCGGAUAAUCGCGUGGAUAUGGCACGCAAGUUUCUACCGGGCACCGUAAAUGUCCGACUGGAGCCGUUCGGGCGGCUAUAAACAGACCUCAGGCCCGAAGCGUGGCGGCACCUGCCGCCGGUGGUAAAAAAGAUCGGAAGAGCACACGUCU [U7G U8C G9A U10G U11C C12G C13G] | 1.02
GGGUCGGCAGCGAAUAAUCGCGUGGAUAUGGCACGCAAGUUUCUACCGGGCACCGUAAAUGUCCGACUGGAGCCGUUCGGGCGGCUAUAAACAGACCUCAGGCCCGAAGCGUGGCGGCACCUGCCGCCGGUGGUAAAAAAGAUCGGAAGAGCACACGUCU [U7G U8C G9A U10G U11C C12G C13A] | 1.14
